Data on 15 sequences can be found in the DeepSol protein solubility set.

This data set can be described thus: soluble on expression in E. coli; label from the status in PepcDB or PDB records.
For the sequence “MGSDKIHHHHHHMNKYLNNINASYCCGCSACVHKCPKQCLRMSQDKDGFFFPIVNNREACIDCSLCAKVCPMENMVESDYPHTFYGAYNTNKTDIVNSSSGGIYPSLAKWIISQGGIVFGASLDDEHKLYHIGVSTESDIQKTIGSKYFQSEIRDTYVECKKELDKGRLVLYTGTPCQVHGLKRYLGKDYDNLYTADVICHGVPSSKMFDAYIDFLEKKHNGKLVDINFRDKKRNGWSITLRYTIEYSNDKRKDYYLINKLSEYFMAFLGGYIERESCYSCPFSSMRRPGDITMGDFWGYQFKRPDLKHDEGLSLIIVNSEHGKRIVDVLHRNGVQFNAVDEECVKASENKNLYKPTLRPEVRSVVYDELQNFGFEYIAKKYFRRTQTLRNKAKNYMPVALVNIIKKLK”, the “soluble on expression in E. coli” value is on record as “not soluble”. The entry for “MSLSEADTSNAKLADFFAKKGNEPLSEIEMEGVLALMQKSRGVADESSFLGNSSRLLGDISNANASQVLRTGNISTSSALNVPNFKPSTDESRNINAKEVENSTIVSTPLKRKNFDYSSIRSPYRTVIYRFDDSNKKKISSVFDKPESSSQEVDETPKPSNSKPLSNTASALVSLLSDKDAAKESIKPMANPYTSHLTALRKSREDLPSINDKITVPKRRQRSETEDKEEAKITSSNGEAQEDTNIPEGIASRKNEEAQDSFTKYKPMRSSSLRDSVSLAHTESNNEKQMNSPKFVPAPLDKNETKETAKSDLTLTSSDKQSESKPSFSFPVNSTTKSTFMGTKKESTSPAVNSQAVKNVSNNETKEIKPQVHECIYDFGNPTSSGFKKTDIDDTLVSKYRGQFVFEGHHHHHH” is “soluble”. The result for “GPGSMEVKIGKDVALLTAHKTYRDDGEDMVKAVATYVPFMNYVAACESSGLVPSAFLVRNVRHIARRVVGVIMDVECNTPTGKIVQPVEMSDFSPAILLPVVIVETVRYALLLQRRCVAVGCGLTTEAFCGAKDSGDNITWQNHELLTSAGFDLRDVRKLGFGEYSVGNEGLPPYTLHTIKKGMSSEEFEQLQKISAGTADASLFAVRLEDVMSSVNDAKAGLAASVLLLES” reads “soluble”; that for “MAHRPRWTLSQVTELFEKPLLDLLFEAQQVHRQHFDPRQVQVSTLLSIKTGACPEDCKYCPQSSRYKTGLEAERLMEVEQVLESARKAKAAGSTRFCMGAAWKNPHERDMPYLEQMVQGVKAMGLEACMTLGTLSESQAQRLANAGLDYYNHNLDTSPEFYGNIITTRTYQERLDTLEKVRDAGIKVCSGGIVGLGETVKDRAGLLLQLANLPTPPESVPINMLVKVKGTPLADNDDVDAFDFIRTIAVARIMMPTSYVRLSAGREQMNEQTQAMCFMAGANSIFYGCKLLTTPNPEEDKDLQLFRKLGLNPQQTAVLAGDNEQQQRLEQALMTPDTDEYYNAAALLEHHHHHH”, “not soluble”; that for “MSEESNDDKKPTTKFELERETELRFEVEASQSVQLELLAGMAEIFGTELTRNKKFTFDAGAKVAVFTWHGCSLQLSGRTEVAYVSKDTPMLLYLNTHTALEQMRRQAEKEEERGPRVMVVGPTDVGKSTVCRLLLNYAVRLGRRPTYVELDVGQGSVSIPGTMGALYIERPADVEEGFSIQAPLVYHFGSTTPGTNIKLYNKITSRLADVFNQRCEVNRRASVSGCVINTCGWVKGYGYQALVHAASAFEVDVVVVLDQERLYNELKRDLPHFVRTVLLPKSGGVVERSKDFRRECRDERIREYFYGFRGCFYPHAFNVKFSDVKIYKVGAPTIPDSCLPLGMSQEDNQLKLVPVTPGRDMVHHLLSVSTAEGTEENLSETSVAGFIVVTSVDVEHQVFTVLSPAPRPLPKNFLLIMDIRFMDLK”, “soluble”. For the sequence “MVASHSFEASILAYVLATELKRKGIEINPEHSALIALFHDAGETLLGDLPKWATSRINKRDAEVEAFDELGIGKELFLELKDLNTNEAKVAKLSDRLSTY”, the “soluble on expression in E. coli” value was “soluble”. The entry for “QLKDKFDGRPTKPPPNSYSLYCAELMANMKDVPSTERMVLCSQQWKLLSQKEKDAYHKKCDQKKKDYEVELLRFLESLPEEEQQRVLGEEKMLNI” is “soluble”; for “MSAVALPRVSGGHDEHGHLEEFRTDPIGLMQRVRDELGDVGTFQLAGKQVVLLSGSHANEFFFRAGDDDLDQAKAYPFMTPIFGEAVVFDASPERRKEMLHNAALRGEQMKGHAATIEDQVRRMIADWGEAGEIDLLDFFAELTIYTSSACLIGKKFRDQLDGRFAKLYHELERGTDPLAYVDPYLPIESFRRRDEARNGLVALVADIMNGRIANPPTDKSDRDMLDVLIAVKAETGTPRFSADEITGMFISMMFAGHHTSSGTASWTLIELMRHRDAYAAVIDELDELYGDGRSVSFHALRQIPQLENVLKETLRLHPPLIILMRVAKGEFEVQGHRIHEGDLVAASPAISNRIPEDFPDPHDFVPARYEQPRQEDLLNRWTWIPFGAGRHRCVGAAFAIMQIKAIFSVLLREYEFEMAQPPESYRNDHSKMVVQLAQPAAVRYRRRTGVHHHH” it is “soluble”; for “MSLERIRDLTSVQGVRQNSLIGYGLVVGLDGTGDQTTQTPFTTQTLNNMLSQLGITVPTGTNMQLKNVAAVMVTASLPPFGRQGQTIDVVVSSMGNAKSLRGGTLLMTPLKGVDSQVYALAQGNILVGGAGASAGGSSVQVNQLNGGRITNGAVIERELPSQFGVGNTLNLQLNDEDFSMAQQIADTINRVRGYGSATALDARTIQVRVPSGNSSQVRFLADIQNMQVNVTPQDAKVVINSRTGSVVMNREVTLDSCAIAQGNLSVTVNRQANVSQPDTPFGGGQTVVTPQTQIDLRQSGGSLQSVRSSASLNNVVRALNALGATPMDLMSILQSMQSAGCLRAKLEIIEGHHHHHH” it is “soluble”. The result for “MICDNCKTREAVILQPHTGRKLCKECFIEDIRKRVEMEARKQEIVNSNKILLAVSGGKDSLVLADTLSQFIHPSRLIAFNINEGIKGYNRNEYVKKLEEYLKDLGIELIKSGFKEEVGFSLDEMLEASLKKKLNVSACTFCGGFRRKLINEAGIKVAADYVATGHNLDDEVQTIVINLIRGDLLRLIRFGDKPLMVSSKFVMRVKPLRKIYEWETTMYAHLKGFEFQETECPYISQKPTLRAKVRDLLYKLEEKKPGTLLRILEQFDEISEKIKKEYRLTNELPNCVICGEPTTPGRMICKNCELLIRSGLMPQEYQKYLPIS” reads “not soluble”. In the case of “MGHHHHHHSHMSDIYQHFRKDERAFIDQALEWKRIVQEQYRMKLTDFLDPREQVILSAVTGQADVGLAFSGGYDRAERKRAILFPEYITPEESDFELQAFNVRYADKFVSVDHRSLLGALMGIGLKRQKFGDIVFSETAVQLIVSADTADFVAAQLTQAGKAAVSLEKIDLSDLNIPAVDVEIRDDTVSSLRLDAVCASMSRQSRQKSQTLVKNGLVKVNWKVVEDPSYIVAEGDMLSIRGFGRCSLTKIEGKTKKDKWRVTFERQK”, the “soluble on expression in E. coli” value was “not soluble”. The entry for “MGVVLIDGSTVRSFVDDEEQFKKSVDERFAALDLNKDGVLSRSELRKAFESMRLLESHFGVDVVTPQDELTNLYDSIFEKFDTDQSGSVDLEEFRSEMKKIVLAIADGLGSCPITMVLDDDDDNFLKKAADLEASKLEKASS” is “soluble”.

For “GSMEPPNLYPVKLYVYDLSKGLARRLSPIMLGKQLEGIWHTSIVVHKDEFFFGSGGISSCPPGGTLLGPPDSVVDVGSTEVTEEIFLEYLSSLGESLFRGEAYNLFEHNCNTFSNEVAQFLTGRKIPSYITDLPSEVLSTPFGQALRPLLDSIQIQPPGGSSVGRPNGQS”, the “soluble on expression in E. coli” value is “soluble”. Consider “MKKLAFAITAASGAAAVLSHHDAEASTQHKVQSGESLWTIAQQYNTSVESIKQNNNLSNNMVFPGQVINVGGSASQNTSSNTSSSSASSHTVVAGESLNIIANKYGVSVDALMQANHLNGYLIMPNQILTIPNGGSGSGSGGTATQTSGNYTSPSFNHQNLYTEGQCTWYVFDKRSQAGKPISTYWSDAKYWASNAANDGYQVDNTPSVGAIMQSTPGPYGHVAYVERINGDGSILISEMNYANGPYNMNYRTIPASEVSSYAFIHLEHHHHHH”, for which the “soluble on expression in E. coli” value was “not soluble”. The entry for “MRKLFLLAIVLCVWSVVADAQESERRYIEVTGSSEIEVVPDEIHLLIQIKEYWKEEFVPKSKPEDYKTKVPLEWIEKDLRRVLSRAGISDEAIRVQEIGDYWRQKGKEFLIGKQLDIRFTDFEKINAVIKKIDTKGIESMRIGELKHKDLPNYRKQGKIEALKAAREKASYLVEAMGQKLGEVIRIVEPASSYVSPYSLYQAQSNVSMGTAATEQYRVITLRYEMTARFAIELEHHHHHH” is “soluble”.
